Measured values: article PMC8191317, “Structural and functional analysis of lignostilbene dioxygenases from Sphingobium sp. SYK-6” (The Journal of Biological Chemistry, 2021)

T1: LSD3 (Sphingobium sp. SYK-6, UniProt G2IPX7)
T1 construct: gene SLG_11300; pET41b, E. coli BL21(DE3) lysate
T1 sequence (G2IPX7 1-491): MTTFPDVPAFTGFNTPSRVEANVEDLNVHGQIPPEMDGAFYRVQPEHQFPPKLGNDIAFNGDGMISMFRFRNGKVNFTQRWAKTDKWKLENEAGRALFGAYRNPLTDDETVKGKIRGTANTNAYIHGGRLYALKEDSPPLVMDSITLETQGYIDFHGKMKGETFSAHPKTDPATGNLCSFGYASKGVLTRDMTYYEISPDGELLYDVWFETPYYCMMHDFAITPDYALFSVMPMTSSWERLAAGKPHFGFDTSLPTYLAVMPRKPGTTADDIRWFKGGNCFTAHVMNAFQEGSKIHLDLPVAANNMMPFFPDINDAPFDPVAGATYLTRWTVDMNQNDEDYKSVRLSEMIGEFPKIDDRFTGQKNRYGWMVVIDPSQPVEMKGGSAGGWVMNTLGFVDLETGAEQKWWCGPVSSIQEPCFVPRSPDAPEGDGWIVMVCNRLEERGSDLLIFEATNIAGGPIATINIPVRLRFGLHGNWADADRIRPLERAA

T2: LSD2 (Sphingobium sp. SYK-6, UniProt G2IQG5)
T2 construct: gene SLG_36640; pET41b, E. coli BL21(DE3) lysate, co-produced with GroEL/GroES
T2 sequence (G2IQG5 1-490): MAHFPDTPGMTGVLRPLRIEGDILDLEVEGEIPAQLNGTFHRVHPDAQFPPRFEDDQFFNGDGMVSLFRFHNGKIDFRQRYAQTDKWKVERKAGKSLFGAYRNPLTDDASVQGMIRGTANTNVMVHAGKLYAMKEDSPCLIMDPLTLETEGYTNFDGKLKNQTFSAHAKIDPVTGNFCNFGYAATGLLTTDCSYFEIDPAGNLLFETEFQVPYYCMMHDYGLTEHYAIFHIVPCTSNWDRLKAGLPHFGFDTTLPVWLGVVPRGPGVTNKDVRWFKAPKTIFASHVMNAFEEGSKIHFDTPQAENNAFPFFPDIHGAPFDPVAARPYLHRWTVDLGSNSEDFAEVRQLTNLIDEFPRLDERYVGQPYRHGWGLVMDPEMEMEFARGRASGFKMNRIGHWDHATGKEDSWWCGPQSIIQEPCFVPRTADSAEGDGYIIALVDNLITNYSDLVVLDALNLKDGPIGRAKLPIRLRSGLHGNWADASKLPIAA


Assays:
LSD3 = biological target: T1, LSD3; assay: oxygraph O2 consumption, E. coli lysate; type: biochemical; conditions: 100 μM substrate
LSD2 = biological target: T2, LSD2; assay: oxygraph O2 consumption, E. coli lysate; type: biochemical; conditions: 100 μM substrate
[1] = biological target: LSD4 (lignostilbene-α,β-dioxygenase 4) from Sphingobium sp. SYK-6 (Sphingobium sp. SYK-6); assay: SEC-MALS; LSD4 at 2 mg/ml in 20 mM HEPES, pH 7.5, 100 mM NaCl, Superdex 75 10/300 GL, 0.4 ml/min, room temperature
[2] = substrate: COc1cc(/C=C/c2ccc(O)c(OC)c2)ccc1O; assay: O2 electrode (oxygraph) steady-state kinetics; type: biochemical, Sphingobium sp. SYK-6; conditions: air-saturated HEPES I = 0.1 M, pH 7.5, 25 °C
Source text: (§1) O2 electrode (oxygraph) steady-state kinetics on LSD4

[3] = substrate: Oc1ccc(/C=C/c2cc(O)cc(O)c2)cc1; assay: O2 electrode (oxygraph) steady-state kinetics; type: biochemical, Sphingobium sp. SYK-6; conditions: air-saturated HEPES I = 0.1 M, pH 7.5, 25 °C
Source text: as §1

[4] = substrate: COc1cc(/C=C/c2ccc(O)cc2)cc(OC)c1; assay: O2 electrode (oxygraph) steady-state kinetics; type: biochemical, Sphingobium sp. SYK-6; conditions: air-saturated HEPES I = 0.1 M, pH 7.5, 25 °C
Source text: as §1

[5] = substrate: COc1cc(/C=C/c2cc(/C=C/C(=O)O)cc(OC)c2O)ccc1O; assay: O2 electrode (oxygraph) steady-state kinetics; type: biochemical, Sphingobium sp. SYK-6; conditions: air-saturated HEPES I = 0.1 M, pH 7.5, 25 °C
Source text: as §1

Row | stoichiometry N [1] | Molecule | relative activity (LSD3) | relative activity (LSD2) | Km [2] [µM] | kcat [2] [s⁻¹] | kcat/Km [2] [M⁻¹ s⁻¹] | Km [3] [µM] | kcat [3] [s⁻¹] | kcat/Km [3] [M⁻¹ s⁻¹] | Km [4] [µM] | kcat [4] [s⁻¹] | kcat/Km [4] [M⁻¹ s⁻¹] | Km [5] [µM] | kcat [5] [s⁻¹] | kcat/Km [5] [M⁻¹ s⁻¹]
1 |  | COc1cc(/C=C/c2cc(/C=C/C(=O)O)cc(OC)c2O)ccc1O [compound 1, 3-(4-hydroxy-3-(4-hydroxy-3-methoxystyryl)-5-methoxyphenyl) acrylate] | lysates containing LSD2, LSD3, or LSD4 preferentially cleaved DCA-S over lignostilbene | lysates containing LSD2, LSD3, or LSD4 preferentially cleaved DCA-S over lignostilbene |  |  |  |  |  |  |  |  |  |  |  | 
2 | 2 | LSD4 (lignostilbene-α,β-dioxygenase 4) from Sphingobium sp. SYK-6 (enzyme) |  |  |  |  |  |  |  |  |  |  |  |  |  | 
3 |  | LSD4 (Sphingobium sp. SYK-6) (protein, residues 2-489 modelled; Fe2+ enzyme, Co-LSD4 for complexes) MAHFPDTPAFTGFNAPSRIECDIPNLVHEGTIPPELNGAFFRVQPDPQFPPRLGDDISFNGDGMITRFHIHDGQCDIKQRWAKTNKWKLENAAGKALFGSYRNPLTDDESVKGEYRSTANTNAFVFAGKLWAMKEDSPSLTMDPATMETFGFEKFGGKMTGQTFTAHPKVDPLTGNMVAIGYAASGLCTDDVCLYEISPDGELIYEAWFKVPYYCMMHDFGVTKDYLVLHIVPSIGSWDRLEKGLPHFGFDTTLPVYLGIIPRRADLKQEDIRWFKRENCFASHVMNAFQEGTKVHVDVPEAENNMFPFFPDVHGAPFNPQQAMSRLTRWTVDMASNSDEFDSVTRLTETAGEFPRIDDRMTGLPYRYGWMLEMDMKRPVELKGGSAGGFLMNCLFLKDHQTGAEQHWWCGPTSSLQEPAFIPRSKDAPEGDGWIVQVCNRLADHKSDLLIFEALDIEKGPVATVHLPFALRFGLHGNWANAEEIGLAA |  |  | 13 ± 1 | 18 ± 1 | 1.4e+06 ± 100000 | 22 ± 2 | 2.1 ± 0.1 | 90000 ± 10000 | 15 ± 2 | 1.9 ± 0.1 | 130000 ± 10000 | 12 ± 1 | 11 ± 1 | 900000 ± 100000
4 |  | LSD4 (Sphingobium sp. SYK-6; S283A) (protein, residues 2-489 modelled; Fe2+ enzyme, Co-LSD4 for complexes) MAHFPDTPAFTGFNAPSRIECDIPNLVHEGTIPPELNGAFFRVQPDPQFPPRLGDDISFNGDGMITRFHIHDGQCDIKQRWAKTNKWKLENAAGKALFGSYRNPLTDDESVKGEYRSTANTNAFVFAGKLWAMKEDSPSLTMDPATMETFGFEKFGGKMTGQTFTAHPKVDPLTGNMVAIGYAASGLCTDDVCLYEISPDGELIYEAWFKVPYYCMMHDFGVTKDYLVLHIVPSIGSWDRLEKGLPHFGFDTTLPVYLGIIPRRADLKQEDIRWFKRENCFAAHVMNAFQEGTKVHVDVPEAENNMFPFFPDVHGAPFNPQQAMSRLTRWTVDMASNSDEFDSVTRLTETAGEFPRIDDRMTGLPYRYGWMLEMDMKRPVELKGGSAGGFLMNCLFLKDHQTGAEQHWWCGPTSSLQEPAFIPRSKDAPEGDGWIVQVCNRLADHKSDLLIFEALDIEKGPVATVHLPFALRFGLHGNWANAEEIGLAA |  |  | 10 ± 1 | 15.3 ± 0.4 | 1.5e+06 ± 100000 |  |  |  |  |  |  | 4.6 ± 0.5 | 4.1 ± 0.1 | 900000 ± 100000
5 |  | LSD4 (Sphingobium sp. SYK-6; S283F) (protein, residues 2-489 modelled; Fe2+ enzyme, Co-LSD4 for complexes) MAHFPDTPAFTGFNAPSRIECDIPNLVHEGTIPPELNGAFFRVQPDPQFPPRLGDDISFNGDGMITRFHIHDGQCDIKQRWAKTNKWKLENAAGKALFGSYRNPLTDDESVKGEYRSTANTNAFVFAGKLWAMKEDSPSLTMDPATMETFGFEKFGGKMTGQTFTAHPKVDPLTGNMVAIGYAASGLCTDDVCLYEISPDGELIYEAWFKVPYYCMMHDFGVTKDYLVLHIVPSIGSWDRLEKGLPHFGFDTTLPVYLGIIPRRADLKQEDIRWFKRENCFAFHVMNAFQEGTKVHVDVPEAENNMFPFFPDVHGAPFNPQQAMSRLTRWTVDMASNSDEFDSVTRLTETAGEFPRIDDRMTGLPYRYGWMLEMDMKRPVELKGGSAGGFLMNCLFLKDHQTGAEQHWWCGPTSSLQEPAFIPRSKDAPEGDGWIVQVCNRLADHKSDLLIFEALDIEKGPVATVHLPFALRFGLHGNWANAEEIGLAA |  |  | 8.5 ± 0.7 | 0.14 ± 0.01 | 16000 ± 2000 |  |  |  |  |  |  | 2.7 ± 0.5 | 0.035 ± 0.001 | 13000 ± 5000
